Source: patent US20250376535A1 (BEIJING STARMAB BIOMED TECHNOLOGY, published 2025)

Columns and labels:
murine serum albumin = molecular target: T1, murine serum albumin (murine, UniProt P07724 25-608); assay: BLI (Gator), His-tagged VHH on anti-His sensor, murine serum albumin 100 nM in solution
T1 construct: As antigen 'MSA' means murine serum albumin; the VHHs also carry the label MSA; also called MSA
Description: (§1) Kinetic binding analysis of MSA VHHs were performed with Gator Prime system equipped with analyze software. […] The experiments were done at 30° C. Prior to analysis, sensors were socked in Q buffer for 600 sec with shaking at 1000 rpm, and then 2 μM of HIS tagged MSA VHHs were loaded to Anti-His sensors with shaking at 400 rpm for 120 sec. Loaded sensors were transferred into Q buffer for 60 sec. Association of HSA or MSA at 100 nM was initiated and monitored for 120-180 sec with shaking at 1000 rpm, and finally dissociation in Q buffer for 120-180 sec with 1000 rpm shaking. Software V2.0 (Gator Bio) was used for data analysis. The on-rate (Kₒₙ) and off-rate (Kd) were determined by fitting of the association and dissociation phases of each sample. The mathematical model used assumes a 1:1 stoichiometry, fitting only one analyte in solution binding to one binding site on the surface. The equilibrium dissociation constant (KD), a measure for affinity, was then calculated as the ratio of Kd and Kₒₙ.

human serum albumin = molecular target: T2, human serum albumin (human, UniProt P02768 25-609); assay: BLI (Gator), His-tagged VHH on anti-His sensor, HSA 100 nM in solution
T2 construct: also called HSA
Description: as §1

EGFR Fc [1] = molecular target: T3, EGFR Fc (human, UniProt P00533 25-645); assay: ELISA, EGFR Fc coated, VHH at 0.08 nM
T3 construct: also called EGFR-hFc; recombinant human EGFR-Fc
Description: (§2) After four rounds of washing with PBST, the plate was incubated with detecting antibody anti-his-HRP (1:4000 dilution) 100 μl per well for one hour with shaking at 60 rpm. The plate was developed with 100 μL of TMB per well in the dark and then stopped by 50 μL of stop solution per well. […] Data was analyzed using GraphPad Prisma 9.1.

[2] = molecular target: T4, EGFR (recombinant human, BLI antigen) (human, UniProt P00533 25-645); assay: BLI (Octet) as in Example 1; printed under the head Kdis(1/s), read as kon
T4 construct: also called rh-EGFR; human EGFR

EGFR Fc [3] = molecular target: T3, EGFR Fc; assay: ELISA, EGFR Fc coated, VHH at 0.0032 nM
Description: as §2

[4] = molecular target: T4, EGFR (recombinant human, BLI antigen); assay: BLI (Octet) as in Example 1
EGFR Fc [5] = molecular target: T3, EGFR Fc; assay: ELISA, EGFR Fc coated
Description: as §2

EGFR Fc [6] = molecular target: T3, EGFR Fc; assay: blocking ELISA, EGFR-hFc + VHH at 0 nM on coated EGF-mFc
Description: (§3) After incubation at 4° C. overnight, the plate was washed four times of PBST and blocked with 200 μl per well of 2% BSA for one hour at room temperature. […] The plate was washed twice with PBST, and the pre-mixed samples were added to the 96-well plate shaking at 60 rpm for one hour at room temperature. After four washes of PBST, the plate was incubated with detecting antibody anti-his-HRP (1:4000 dilution) 100 μl per well for one hour with shaking at 60 rpm. The plate was washed with four times of PBST and added 100 μl per well of substrate TMB followed by 50 μl of stop solution.

EGFR Fc [7] = molecular target: T3, EGFR Fc; assay: ELISA, EGFR Fc coated, VHH at 0.016 nM
Description: as §2

EGFR Fc [8] = molecular target: T3, EGFR Fc; assay: blocking ELISA, EGFR-hFc + VHH at 1.6 nM on coated EGF-mFc
Description: as §3

EGFR Fc [9] = molecular target: T3, EGFR Fc; assay: ELISA, EGFR Fc coated, VHH at 0.4 nM
Description: as §2

EGFR Fc [10] = molecular target: T3, EGFR Fc; assay: blocking ELISA, EGFR-hFc + VHH at 1000 nM on coated EGF-mFc
Description: as §3

EGFR Fc [11] = molecular target: T3, EGFR Fc; assay: ELISA, EGFR Fc coated, VHH at 50 nM
Description: as §2

EGFR Fc [12] = molecular target: T3, EGFR Fc; assay: blocking ELISA, EGFR-hFc + VHH at 200 nM on coated EGF-mFc
Description: as §3

[13] = molecular target: T4, EGFR (recombinant human, BLI antigen); assay: BLI (Octet) as in Example 1; printed under the head Kon(1/Ms), read as koff
EGFR Fc [14] = molecular target: T3, EGFR Fc; assay: ELISA, EGFR Fc coated, VHH at 500 nM
Description: as §2

EGFR Fc [15] = molecular target: T3, EGFR Fc; assay: ELISA, EGFR Fc coated, VHH at 2 nM
Description: as §2

EGFR Fc [16] = molecular target: T3, EGFR Fc; assay: blocking ELISA, EGFR-hFc + VHH at 8 nM on coated EGF-mFc
Description: as §3

EGFR Fc [17] = molecular target: T3, EGFR Fc; assay: blocking ELISA, EGFR-hFc + VHH at 0.064 nM on coated EGF-mFc
Description: as §3

EGFR Fc [18] = molecular target: T3, EGFR Fc; assay: blocking ELISA, EGFR-hFc + VHH at 40 nM on coated EGF-mFc
Description: as §3

EGFR Fc [19] = molecular target: T3, EGFR Fc; assay: ELISA, EGFR Fc coated, VHH at 10 nM
Description: as §2

EGFR Fc [20] = molecular target: T3, EGFR Fc; assay: blocking ELISA, EGFR-hFc + VHH at 0.32 nM on coated EGF-mFc
Description: as §3

Row | OD450 (EGFR Fc [1]) | kon [2] [M⁻¹ s⁻¹] | OD450 (EGFR Fc [3]) | Kd [4] [nM] | EC50 (EGFR Fc [5]) [nM] | OD450 (EGFR Fc [6]) | OD450 (EGFR Fc [7]) | OD450 (EGFR Fc [8]) | OD450 (EGFR Fc [9]) | OD450 (EGFR Fc [10]) | OD450 (EGFR Fc [11]) | OD450 (EGFR Fc [12]) | koff [13] [s⁻¹] | OD450 (EGFR Fc [14]) | OD450 (EGFR Fc [15]) | OD450 (EGFR Fc [16]) | OD450 (EGFR Fc [17]) | OD450 (EGFR Fc [18]) | OD450 (EGFR Fc [19]) | OD450 (EGFR Fc [20]) | Binder | further results
1 | 0.373 | 457000 | 0.086 | 0.602 | 0.382 | 1.06 | 0.134 | 0.723 | 0.762 | 0.336 | 1.21 | 0.382 | 0.000275 | 1.47 | 0.843 | 0.562 | 0.979 | 0.482 | 0.994 | 0.806 | pgEG-SX3 (VHH, not shown: small tags and cut ends) VHH: QVQLVESGGGLVQAGGSLRLSCVVYGSIFASTTMGWYRQAPGKQRELVATVYQSGTSVYADSVKGRFTASRDNAKKTVYLQMNSLKPEDTAVYYCHPRATDYWGRGTQVTVSS | 
2 | 1.43 | 602000 | 0.304 | 0.464 | 0.0072 | 1.07 | 0.871 | 0.864 | 1.72 | 0.96 | 1.78 | 0.903 | 0.00028 | 2.16 | 1.88 | 0.736 | 0.983 | 0.801 | 1.94 | 0.955 | pgEG-SX22 (VHH, not shown: small tags and cut ends) VHH: QVQLVESGGGLVQAGGSLRVSCAVSGGALSAYAMAWFRQAPGKEREFVAGLNWGGDETYYADSAKGRFTISKDNAKNTVSLQMNSLEPEDTAVYYCGGRPGPLLSRATGYKYWGQGTQVTVSS | 
3 | 2.37 | 381000 | 0.648 | 1.87 | 0.022 | 1.11 | 1.33 | 0.919 | 2.67 | 0.15 | 2.46 | 0.158 | 0.000715 | 2.61 | 2.79 | 0.649 | 1.14 | 0.433 | 2.54 | 1.08 | pgEG-SX57 (VHH, not shown: small tags and cut ends) VHH: QVQLVESGGGLVQAGGSLRLSCAGARSIFSIKPMTWYRQAPGKERELVAWFTSGDSPNYADSVKGRFTISRDSAKNTVYLQMNNLKPEDTAVYYCNAVPPLGRWGQGTLVTVSS | 

The remaining lines, values behind:

Row | Binder | OD450 (EGFR Fc [1]) | kon [2] [M⁻¹ s⁻¹] | OD450 (EGFR Fc [3]) | Kd [4] [nM] | EC50 (EGFR Fc [5]) [nM] | OD450 (EGFR Fc [6]) | OD450 (EGFR Fc [7]) | OD450 (EGFR Fc [8]) | OD450 (EGFR Fc [9]) | OD450 (EGFR Fc [10]) | OD450 (EGFR Fc [11]) | OD450 (EGFR Fc [12]) | koff [13] [s⁻¹] | OD450 (EGFR Fc [14]) | OD450 (EGFR Fc [15]) | OD450 (EGFR Fc [16]) | OD450 (EGFR Fc [17]) | OD450 (EGFR Fc [18]) | OD450 (EGFR Fc [19]) | OD450 (EGFR Fc [20]) | further results
4 | Humanized MSA4-1 (VHH, Humanization of MSA4 based on human germline IGHV3-23*04; also called hMSA4-1; not shown: His tag (BLI used HIS tagged MSA VHHs)) VHH: EVQLVESGGGLVQPGGSLRLSCAASGRTDSAYRMGWFRQAPGKEREFVSAINWSDGRTVYLDSVKGRFTISRDNAKNTLYLQMNSLRAEDTAVYYCAADPDSRLYYTVPQNYDYWGQGTQVTVSS |  |  |  |  |  |  |  |  |  |  |  |  |  |  |  |  |  |  |  |  | Kd (murine serum albumin): 5.58 nM; koff (murine serum albumin): 0.000678 s⁻¹; kon (murine serum albumin): 121000 M⁻¹ s⁻¹; Kd (human serum albumin): 5.38 nM; koff (human serum albumin): 0.000545 s⁻¹; kon (human serum albumin): 101000 M⁻¹ s⁻¹
5 | pgEG-SX40 (VHH, not shown: small tags and cut ends) VHH: QVQLVESGGGLVQAGGSLRLSCTGSGIRFSFYTLGWYRQAPGKQRELVAEIYSSDNAKYEDSVKGRFAISRDNAKNSVSLQMNSLKPEDTAVYYCNVRATDYWGPGTQVTVSS | 0.25 | 358000 | 0.121 | 1.13 | 0.769 | 1.14 | 0.144 | 0.922 | 0.461 | 0.151 | 0.786 | 0.147 | 0.000406 | 0.963 | 0.626 | 0.633 | 1.06 | 0.414 | 0.715 | 1.03 | 
6 | pgEG-SX6 (VHH, not shown: small tags and cut ends) VHH: QVQLVESGGGTVQAGGSLRLSCVASGMREDIFDMGWYRQAPGLQRELVATITSGGSTDYADSVKGRFTISRDNTENTLNLQMNMLKPEDTAVYYCNALYFPPSGGRSSEFWGQGTLVTVSS | 0.496 | 500000 | 0.082 | 0.798 | 0.12 | 1.04 | 0.139 | 0.928 | 1.16 | 0.646 | 1.15 | 0.668 | 0.000399 | 1.37 | 1.83 | 0.757 | 0.956 | 0.606 | 1 | 1.07 | 
7 | pgEG5 (VHH, not shown: small tags and cut ends) VHH: QVQLVESGGGLVQPGGSLRLSCTASHNIFSDNAMAWSRQAPGAQRELVARIATGGNTYYPDSVKGRFTISRDNAKNTVYLQMNNLTPDDTAVYYCYAERWTGLEYSRTYWGQGTQVTVSS | 0.34 |  | 0.119 | 10.8 | 0.426 | 1.2 | 0.147 | 1.18 | 1.2 | 1.22 | 2.33 | 1.2 |  | 2.52 | 2.23 | 1.07 | 1.15 | 1.11 | 2.35 | 1.16 | koff [4]: 0.00134 s⁻¹; kon [4]: 124000 M⁻¹ s⁻¹
